Results as given in the Human Domainome abundance scans (Beltran et al. 2025).
± gives the uncertainty stated by the source.

B1: Peripheral plasma membrane protein CASK, residues 488 to 569; numbered along this chain, O14936 (parent)
chain: VRLVQFQKNTDEPMGITLKMNELNHCIVARIMHGGMIHRQGTLHVGDEIREINGISVANQTVEQLQKMLREMRGSITFKIVP

Variants of: B1
Experiment: abundance fitness (aPCA) (normalised: wild type 0, dead -1); higher = more abundant; growth selection in yeast, the domain comes from the species named
Details: Homo sapiens

Row | Variant | abundance fitness
1 | VRLVQFQKNTDEPMGITLKMNELNHCIVARIMHGGMIHRQGTLHVGDEIREINGISVANQTVEQLQKMLRAMRGSITFKIVP [E71A] | -0.03 ± 0.025
2 | VRLVQFQKNTDEPMGITLKMNELNHCIVARIMHGGMIHRQGTLHVGDEIREINGISVANQTVEQLQKMLRCMRGSITFKIVP [E71C] | -0.022 ± 0.034
3 | VRLVQFQKNTDEPMGITLKMNELNHCIVARIMHGGMIHRQGTLHVGDEIREINGISVANQTVEQLQKMLRDMRGSITFKIVP [E71D] | 0.007 ± 0.046
4 | VRLVQFQKNTDEPMGITLKMNELNHCIVARIMHGGMIHRQGTLHVGDEIREINGISVANQTVEQLQKMLRFMRGSITFKIVP [E71F] | 0.013 ± 0.051
5 | VRLVQFQKNTDEPMGITLKMNELNHCIVARIMHGGMIHRQGTLHVGDEIREINGISVANQTVEQLQKMLRGMRGSITFKIVP [E71G] | 0.006 ± 0.022
6 | VRLVQFQKNTDEPMGITLKMNELNHCIVARIMHGGMIHRQGTLHVGDEIREINGISVANQTVEQLQKMLRHMRGSITFKIVP [E71H] | -0.002 ± 0.048
7 | VRLVQFQKNTDEPMGITLKMNELNHCIVARIMHGGMIHRQGTLHVGDEIREINGISVANQTVEQLQKMLRIMRGSITFKIVP [E71I] | -0.036 ± 0.061
8 | VRLVQFQKNTDEPMGITLKMNELNHCIVARIMHGGMIHRQGTLHVGDEIREINGISVANQTVEQLQKMLRKMRGSITFKIVP [E71K] | 0.004 ± 0.037
9 | VRLVQFQKNTDEPMGITLKMNELNHCIVARIMHGGMIHRQGTLHVGDEIREINGISVANQTVEQLQKMLRLMRGSITFKIVP [E71L] | -0.074 ± 0.028
10 | VRLVQFQKNTDEPMGITLKMNELNHCIVARIMHGGMIHRQGTLHVGDEIREINGISVANQTVEQLQKMLRMMRGSITFKIVP [E71M] | -0.053 ± 0.034
11 | VRLVQFQKNTDEPMGITLKMNELNHCIVARIMHGGMIHRQGTLHVGDEIREINGISVANQTVEQLQKMLRNMRGSITFKIVP [E71N] | -0.044 ± 0.063
12 | VRLVQFQKNTDEPMGITLKMNELNHCIVARIMHGGMIHRQGTLHVGDEIREINGISVANQTVEQLQKMLRQMRGSITFKIVP [E71Q] | -0.051 ± 0.035
13 | VRLVQFQKNTDEPMGITLKMNELNHCIVARIMHGGMIHRQGTLHVGDEIREINGISVANQTVEQLQKMLRRMRGSITFKIVP [E71R] | -0.008 ± 0.022
14 | VRLVQFQKNTDEPMGITLKMNELNHCIVARIMHGGMIHRQGTLHVGDEIREINGISVANQTVEQLQKMLRSMRGSITFKIVP [E71S] | -0.013 ± 0.029
15 | VRLVQFQKNTDEPMGITLKMNELNHCIVARIMHGGMIHRQGTLHVGDEIREINGISVANQTVEQLQKMLRTMRGSITFKIVP [E71T] | -0.036 ± 0.034
16 | VRLVQFQKNTDEPMGITLKMNELNHCIVARIMHGGMIHRQGTLHVGDEIREINGISVANQTVEQLQKMLRVMRGSITFKIVP [E71V] | -0.034 ± 0.025
17 | VRLVQFQKNTDEPMGITLKMNELNHCIVARIMHGGMIHRQGTLHVGDEIREINGISVANQTVEQLQKMLRYMRGSITFKIVP [E71Y] | 0.017 ± 0.051

Row | Variant | abundance fitness
18 | VRLVQFQKNTDEPMGITLKMNELNHCIVARIMHGGMIHRQGTLHVGDEIREINGISVANQTVEQLQKMLREARGSITFKIVP [M72A] | 0.022 ± 0.024
19 | VRLVQFQKNTDEPMGITLKMNELNHCIVARIMHGGMIHRQGTLHVGDEIREINGISVANQTVEQLQKMLRECRGSITFKIVP [M72C] | 0.005 ± 0.03
20 | VRLVQFQKNTDEPMGITLKMNELNHCIVARIMHGGMIHRQGTLHVGDEIREINGISVANQTVEQLQKMLREDRGSITFKIVP [M72D] | -0.182 ± 0.034
21 | VRLVQFQKNTDEPMGITLKMNELNHCIVARIMHGGMIHRQGTLHVGDEIREINGISVANQTVEQLQKMLREERGSITFKIVP [M72E] | -0.085 ± 0.028
22 | VRLVQFQKNTDEPMGITLKMNELNHCIVARIMHGGMIHRQGTLHVGDEIREINGISVANQTVEQLQKMLREFRGSITFKIVP [M72F] | 0.039 ± 0.038
23 | VRLVQFQKNTDEPMGITLKMNELNHCIVARIMHGGMIHRQGTLHVGDEIREINGISVANQTVEQLQKMLREGRGSITFKIVP [M72G] | -0.077 ± 0.02
24 | VRLVQFQKNTDEPMGITLKMNELNHCIVARIMHGGMIHRQGTLHVGDEIREINGISVANQTVEQLQKMLREHRGSITFKIVP [M72H] | -0.009 ± 0.046
25 | VRLVQFQKNTDEPMGITLKMNELNHCIVARIMHGGMIHRQGTLHVGDEIREINGISVANQTVEQLQKMLREIRGSITFKIVP [M72I] | 0.036 ± 0.042
26 | VRLVQFQKNTDEPMGITLKMNELNHCIVARIMHGGMIHRQGTLHVGDEIREINGISVANQTVEQLQKMLREKRGSITFKIVP [M72K] | -0.072 ± 0.032
27 | VRLVQFQKNTDEPMGITLKMNELNHCIVARIMHGGMIHRQGTLHVGDEIREINGISVANQTVEQLQKMLRENRGSITFKIVP [M72N] | -0.114 ± 0.046
28 | VRLVQFQKNTDEPMGITLKMNELNHCIVARIMHGGMIHRQGTLHVGDEIREINGISVANQTVEQLQKMLREPRGSITFKIVP [M72P] | -0.244 ± 0.045
29 | VRLVQFQKNTDEPMGITLKMNELNHCIVARIMHGGMIHRQGTLHVGDEIREINGISVANQTVEQLQKMLREQRGSITFKIVP [M72Q] | -0.05 ± 0.03
30 | VRLVQFQKNTDEPMGITLKMNELNHCIVARIMHGGMIHRQGTLHVGDEIREINGISVANQTVEQLQKMLRERRGSITFKIVP [M72R] | -0.14 ± 0.021
31 | VRLVQFQKNTDEPMGITLKMNELNHCIVARIMHGGMIHRQGTLHVGDEIREINGISVANQTVEQLQKMLRESRGSITFKIVP [M72S] | 0.007 ± 0.026
32 | VRLVQFQKNTDEPMGITLKMNELNHCIVARIMHGGMIHRQGTLHVGDEIREINGISVANQTVEQLQKMLRETRGSITFKIVP [M72T] | -0.022 ± 0.031
33 | VRLVQFQKNTDEPMGITLKMNELNHCIVARIMHGGMIHRQGTLHVGDEIREINGISVANQTVEQLQKMLREVRGSITFKIVP [M72V] | -0.008 ± 0.023
